# Experimental data taken from article PMC11724954.
# Biological target: T1, QCP (bacteriophage Qβ coat protein) (bacteriophage Qβ, UniProt P03615 2-133)
# T1 sequence: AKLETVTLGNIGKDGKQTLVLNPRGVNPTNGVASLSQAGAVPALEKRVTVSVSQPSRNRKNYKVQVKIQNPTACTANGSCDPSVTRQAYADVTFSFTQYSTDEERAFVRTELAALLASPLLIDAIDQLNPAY
# Assay: SPR
row,Binder,Kd
1,CCAUUAGCUAAGCUAAUGGAAAAAAAAAAAAAAAAAAAAAAAA (structured_RNA) [A14],0.0178 µM
2,CCUUUAGCUAAGCUAAUGGAAAAAAAAAAAAAAAAAAAAAAAA (structured_RNA) [A16],0.0289 µM
3,CCCUUAGCUAAGCUAAGUGAAAAAAAAAAAAAAAAAAAAAAAA (structured_RNA) [A18],0.016 µM
4,CCCUUAGCUAAGCUAAGGUAAAAAAAAAAAAAAAAAAAAAAAA (structured_RNA) [A19],0.0804 µM
5,CCUCUAGCUAAGCUAUAGGAAAAAAAAAAAAAAAAAAAAAAAA (structured_RNA) [A17],0.0908 µM
6,CCGUUAGCUAAGCUAAUGGAAAAAAAAAAAAAAAAAAAAAAAA (structured_RNA) [A15],0.0862 µM
